Experimental findings from patent publication US20150232562A1 (Ablynx, published 2015) are described below.

The target of the test is T1, recombinant human ErbB2/Fc chimera (human, UniProt P04626 23-652).
T1 construct: bought from R&D Systems; also called rhErbB2-Fc; rhErb2-Fc; Fc part of the bought chimera not given; not described
The experiment in a line: ELISA, coated ErbB2/Fc. A general note: ELISA stands for enzyme-linked immunosorbent assay.

Where a chain is given by its changes, count along the chain named.

B1: 13C2 (VHH)
VHH: EVQLVESGGGLVQAGGSLRLSCAASGSTFSINRMAWYRQSPGKQRELVAAVDNDDNTEYSDSVAGRFTISRDNAKNAVHLQMNSLRLEDTAVYYCNAKQLPYLQNFWGQGTQVTVSS
notes: C-term myc-His6 tag
With B1, the binding result is given as “binds”.

B2: 17B5 (VHH)
VHH: EVQLVESGGGLVQTGGSLRLSCAASGSTFRTDMMGWYRQAPGKQREFVASITKFGSTNYADSVKGRFTISNDNAKDTVYLQMNSLKSEDTAVYYCRNFNRDLWGQGTQVTVSS
notes: C-term myc-His6 tag
As to B2, the binding result was “binds”.

B3: 13C4 (VHH)
VHH: EVQLVESGGGLVQAGGSLRLSCVVSGIPSSIRAMAWYRQAPGRQRDWVATIYSPSGSAVYADSVKGRFTISSDNAKSTIYLQMNSLKPDDTAVYYCRDVNREYWGQGTQVTVSS
notes: C-term myc-His6 tag
Regarding B3, the binding result is “binds”.

B4: 15B11 (VHH)
VHH: B3 VHH with L11S, P54R, S57G, S77N, E102D
notes: C-term myc-His6 tag
As to B4, the binding result was “binds”.

B5: 15B2 (VHH)
VHH: B3 VHH with E102D
notes: C-term myc-His6 tag
As for B5, the binding result is “binds”.

B6: 15G5 (VHH)
VHH: B3 VHH with S30T, S77K
notes: C-term myc-His6 tag
For B6, the binding result was “binds”.

B7: 13D4 (VHH)
VHH: B3 VHH with K87E
notes: C-term myc-His6 tag
With B7, the binding result is recorded as “binds”.

B8: 47E5 (VHH)
VHH: EVQLVESGGGLVQAGGSLRLSCAASASIFGFDSMGWYRQAPGNERILVAIISNGGTTSYRDSVKGRFTIARDNAKNTVSLQMNSLKPEDTAVYYCNLDRRSYNGRQYWGQGTQVTVSS
notes: C-term myc-His6 tag
In the case of B8, the binding result is “binds”.

B9: 13C9 (VHH)
VHH: EVQLVESGGGLVQAGGSLRLSCVASGIPSIHAMAWYRQAPGKQRDWGATTYSRGGTTYNDSAKGRFTISRDNAKKTVYLQMNSLKPEDTAVYYCRDVNRDYWGQGTQVTVSS
notes: C-term myc-His6 tag
Consider B9, for which the binding result is on record as “binds”.

B10: 17A10 (VHH)
VHH: EVQLVESGGGLVQAGGSLRLSCVASGIPSIRAIAWYRQAPGKQRDWVATSGTGYGATYDDSVKGRFTLSRDNAKNTVYLQMNSLKPEDTAVYYCRDVNRDYWGQGTQVTVSS
notes: C-term myc-His6 tag
B10: the binding result is “binds”.

B11: 46G1 (VHH)
VHH: EVQLVESGGGLVQAGGSLRLSCAASGRTFSDDAMGWFRQAPGKERECVASLYLNGDYPYYADSVKGRFTISRDNAKNAVILQMNNLKTEDTAVYYCAAKPGWVARDPSQYNYWGQGTQVTVSS
notes: C-term myc-His6 tag
Regarding B11, the binding result is “binds”.

B12: 46E4 (VHH)
VHH: B11 VHH with T28A, S30K, M34V, L51M, N54D, Q109E
notes: C-term myc-His6 tag
For B12, the binding result is given as “binds”.

B13: 17A3 (VHH)
VHH: EVQLVESGGGLVQAGGSLSLSCAASATLHRFDNNWYRQAPGKQRELVATIAHDGSTNYANSVKGRFTISRDNARDTLFLQMHALQPEDTAVYMCNLHRWGLNYWGQGTQVTVSS
notes: C-term myc-His6 tag
As to B13, the binding result is given as “binds”.

B14: 15E10 (VHH)
VHH: EVQLVESGGGLVQAGGSLKLSCVASGITFFRYTMGWYRQAPGKERELVAEISSADEPSFADAVKGRFTISRDNAKNTVVLQMNGLKPEDTAVYYCKGSWSYPGLTYWGKGTLVTVSS
notes: C-term myc-His6 tag
Turning to B14, the binding result is “binds”.

B15: 13D10 (VHH)
VHH: EVQLVESGGGLVQPGGSLRLSCAASSVITLDSNAIGWFRQAPGKEREEVSCIASSDGSTYYAESVKGRFTISKDYTRNTVYLQVNSLKPEDTAVYHCATDANPNCGLNVWNSWGQGTQVTVSS
notes: C-term myc-His6 tag
Consider B15, for which the binding result is listed as “binds”.

B16: 17A5 (VHH)
VHH: EVQLVESGGGLVQPGGSLRLSCAASGFTFDDYSMSWVRQATGKGLEWVSGISWNGGSTNYADSVKGRFTISRDNVKNTLYLQMNSLKSEDTAVYYCAKDLGNSGRGPYTNWGQGTQVTVSS
notes: C-term myc-His6 tag
As to B16, the binding result is “binds”.

B17: 30D10 (VHH)
VHH: EVQLVESGGGLVQAGGSLTLSCTASETTVRIRTMAWYRQPPGNQREWVATIGSNGFATYPDSVKGRFTISRDNAKNTVYLQMNSLKPEDTAVYYCRDINRDIWGQGSQVTVSS
notes: C-term myc-His6 tag
Take B17: the binding result is “binds”.

B18: 14D4 (VHH)
VHH: EVQLVESGGGLVQAGDSLRLSCAASGRALDTYVMGWFRQAPGDGREFVAHIFRSGITSYASSVKGRFTISRDNAKNTVYLQMASLKPEDTAAYYCAARPSDTTWSESSASWGQGTQVTVSS
notes: C-term myc-His6 tag
Take B18: the binding result is “binds”.

B19: 15H4 (VHH)
VHH: EVQLVESGGGLVQAGGSLTLSCAPSESTVSFNTVAWYRQAPGEQREWVATISRQGMSTYPDSVKGRFTISRDNAKNTVYLQMNNLKPEDTAVYYCRDINHDIWGRGSQVTVSS
notes: C-term myc-His6 tag
In the case of B19, the binding result is listed as “binds”.

B20: 17A6 (VHH)
VHH: EVQLVESGGGLVQPGGSLRLSCAASGFTFSSYAMSWVRQAPGKGLEWVSAISSGGGSITTYADSVKGRFTISTDNAKNTLYLQMSSLKPEDTALYYCAKARSSSSYYDFGSWGQGTQVTVSS
notes: C-term myc-His6 tag
For the molecule B20, the binding result is reported as “binds”.

B21: 27F2 (VHH)
VHH: EVQLVESGGGLVQAGGSLRLSCAASGIISSFRTLAWYRQAPGKQRDWVATISSAGGTAYADAVKGRFTISISRDNVEYTVDLQMDSLKPEDTAVYYCRDINGDYWGQGTQVTVSS
notes: C-term myc-His6 tag
For the molecule B21, the binding result is listed as “binds”.

B22: 17D5 (VHH)
VHH: EVQLVESGGGLVQPGGSLRLSCAASGIIGTIRTMAWYRQAPGKQRDWVASIGTRGAPVYADSVNGRFTISRDGATNTVFLQMNNLKPEDTAVYYCRDVNRDYWGQGTQVTVSS
notes: C-term myc-His6 tag
As to B22, the binding result was “binds”.

B23: 15G10 (VHH)
VHH: EVQLVESGGGLVQAGGSLSLSCAASGRFFSTRVMAWYRQTPGKQREFVASMRGSGSTNYADSARGRFAISRDNAKNTVYLQMNSLKPEDTAVYYCRDINEDQWGQGTQVTVSS
notes: C-term myc-His6 tag
As to B23, the binding result is “binds”.

B24: 27A3 (VHH)
VHH: B23 VHH with A23V, A63V, S84T
notes: C-term myc-His6 tag
On to B24, for which the binding result was “binds”.

B25: 17A8 (VHH)
VHH: B23 VHH with A63V, T77M, S84T
notes: C-term myc-His6 tag
As to B25, the binding result is listed as “binds”.

B26: 17H10 (VHH)
VHH: B23 VHH with A23S, K43N, S50T, M51I, R52H, G53S, N58I, A63V, N83R, E100A
notes: C-term myc-His6 tag
As to B26, the binding result is “binds”.

B27: 15A2 (VHH)
VHH: B23 VHH with V12A
notes: C-term myc-His6 tag
On to B27, for which the binding result is on record as “binds”.

B28: 17D7 (VHH)
VHH: EVQLVESGGGLVQPGGSLRLSCAASGFTLDYCAIGWFRQAPGKEREGVSCISSSDGSTYYADSVKGRFTISRDNAKNTVYLQMNSLKPEDTAVYYCATDRGSGTCYADFGSWGQGTQVTVSS
notes: C-term myc-His6 tag
For B28, the binding result is reported as “binds”.

B29: 17G11 (VHH)
VHH: EVQLVESGGGLVQAGGSLRLSCAASGSTFSINRWGWYRQAPGKQRELVAAIDDGGNTEYSDFVNGRFTISRDNPETAVHLQMNSLKLEDTAVYYCNAKQLPYLQNFWGQGTQVTVSS
notes: C-term myc-His6 tag
With B29, the binding result is recorded as “binds”.

B30: 15D2 (VHH)
VHH: EVQLVESGGGLVQAGGSLRLSCVVSGVFGPIRAMAWYRQAPGKQRDWVATIGSSGHPVYTDSVKGRFTFSKDGAKNTVYLQMNSLKPEDTAVYYCRDINRDYWGQGTQVTVSS
notes: C-term myc-His6 tag
With B30, the binding result is on record as “binds”.

B31: 17B7 (VHH)
VHH: EVQLVESGGGLVQAGGSLRLSCAASGIISSFRTMAWYRQAPGKQRDWVATIGSDGLANYADSVKGRFTISRDNAKKTVYLQMNSLKPEDTAVYFCRDINRDYWGQGTQVTVSS
notes: C-term myc-His6 tag
For the molecule B31, the binding result is reported as “binds”.

B32: 15B6 (VHH)
VHH: B31 VHH with A14P, S29G, K43N, D54A, N58S, K64R, I69L, V92I, F94Y, R100G
notes: C-term myc-His6 tag
Consider B32, for which the binding result is given as “binds”.

B33: 17C6 (VHH)
VHH: EVQLVESGGGLVQAGGSLTLSCAASGSTSSLDIMAWYRQAPEKQRELVASVSGGGNSDYASSVKGRFTISGDTAKSTLYLQMNSLKPEDTAMYYCYGRDYYYMPFWGQGTQVTVSS
notes: C-term myc-His6 tag
For B33, the binding result is reported as “binds”.

B34: 15D10 (VHH)
VHH: EVQLVESGGGLVQPGGSLKLSCAASGFTFSSYRMYWVRQAPGKGLEWVSAIKPDGSITYYADSVKGRFTISRDNAKNTVYLQMNSLKPEDTAVYYCATDCGVPGFGWTFSSWGQGTQVTVSS
notes: C-term myc-His6 tag
In the case of B34, the binding result was “binds”.

B35: 27E7 (VHH)
VHH: EVQLVESGGGLVQAGGSLRLSCAASGITFRRYDMGWYRQFPGKERELVATILSEGDTNYVDPVKGRFTISRDNAKNTVYLQMNDLKPEDTAVYYCNGVWRAIGRTYWGQGTQVTVSS
notes: C-term myc-His6 tag
Turning to B35, the binding result was “binds”.

B36: 15C9 (VHH)
VHH: EVQLVESGGGLVQAGGSLKLSCVNSGIPSTLRAMAWYRQAPGRQRDWVATSSNTGGTTYDDSVKGRFTISRDNAKNTVYLQMNSLKPEDTGVYYCRDVNRDLWGQGTQVTVSS
notes: C-term myc-His6 tag
Consider B36, for which the binding result is recorded as “binds”.
